Measurements from patent publication EP4671282A1 (Jiangsu Hengrui Pharmaceuticals Co., Ltd., dated 2025).
Where two headings read alike, the source gives them in different places.

B1: VHH162 (camelid nanobody clone from the phage library) (VHH)
VHH: DVQLVESGGGSVQPGGSLRLSCAASGYSYRTQCLGWYRQAPGKQREAVATISGGGTSTYYSDSVKGRFTISQDNARTTVYLSLTSLKPEDTATYYCAAGLSVLGSWCHGGSSYEYTYSGQGTQVTVSS
notes: As identified by panning and clone ELISA (phage or clone format not described)
B2: IL-36R-IL-23-01 (anti-IL-36R and anti-IL-23 bispecific antibody, VHH213_Hu07 on Hu29-19, Structure A) (bispecific antibody, human IgG1, kappa, L234A L235A)
heavy: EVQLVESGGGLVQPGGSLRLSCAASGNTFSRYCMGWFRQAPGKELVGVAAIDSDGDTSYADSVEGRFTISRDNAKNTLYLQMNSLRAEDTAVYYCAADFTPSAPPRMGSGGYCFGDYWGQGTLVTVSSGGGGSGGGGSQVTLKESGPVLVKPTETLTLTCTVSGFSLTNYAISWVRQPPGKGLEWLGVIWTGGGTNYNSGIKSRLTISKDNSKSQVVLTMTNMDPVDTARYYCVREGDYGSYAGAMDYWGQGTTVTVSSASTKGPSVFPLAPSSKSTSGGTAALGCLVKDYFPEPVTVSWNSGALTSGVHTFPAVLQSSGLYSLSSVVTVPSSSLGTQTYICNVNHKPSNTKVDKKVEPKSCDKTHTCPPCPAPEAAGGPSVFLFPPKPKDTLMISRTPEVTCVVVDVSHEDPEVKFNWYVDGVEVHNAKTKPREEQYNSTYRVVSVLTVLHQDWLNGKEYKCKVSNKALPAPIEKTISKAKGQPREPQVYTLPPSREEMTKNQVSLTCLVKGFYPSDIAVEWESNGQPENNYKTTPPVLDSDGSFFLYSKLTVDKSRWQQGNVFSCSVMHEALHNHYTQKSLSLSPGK
light: DIVLTQSPDSLAVSLGERATINCRASESVDYYGISSMHWFQQKPGQPPKLLIYRASNLESGIPARFSGSGSRTDFTLTISSLQAEDVAVYYCQQANKDPYTFGGGTKVEIKRTVAAPSVFIFPPSDEQLKSGTASVVCLLNNFYPREAKVQWKVDNALQSGNSQESVTEQDSKDSTYSLSSTLTLSKADYEKHKVYACEVTHQGLSSPVTKSFNRGEC
notes: VHH fused by a (G4S)2 linker to the N-terminus of the heavy chain; IgG1 L234A/L235A
B3: IL-36R-IL-23-02 (anti-IL-36R and anti-IL-23 bispecific antibody, VHH162_Hu11 on Hu29-19, Structure A) (bispecific antibody, human IgG1, kappa, L234A L235A)
heavy: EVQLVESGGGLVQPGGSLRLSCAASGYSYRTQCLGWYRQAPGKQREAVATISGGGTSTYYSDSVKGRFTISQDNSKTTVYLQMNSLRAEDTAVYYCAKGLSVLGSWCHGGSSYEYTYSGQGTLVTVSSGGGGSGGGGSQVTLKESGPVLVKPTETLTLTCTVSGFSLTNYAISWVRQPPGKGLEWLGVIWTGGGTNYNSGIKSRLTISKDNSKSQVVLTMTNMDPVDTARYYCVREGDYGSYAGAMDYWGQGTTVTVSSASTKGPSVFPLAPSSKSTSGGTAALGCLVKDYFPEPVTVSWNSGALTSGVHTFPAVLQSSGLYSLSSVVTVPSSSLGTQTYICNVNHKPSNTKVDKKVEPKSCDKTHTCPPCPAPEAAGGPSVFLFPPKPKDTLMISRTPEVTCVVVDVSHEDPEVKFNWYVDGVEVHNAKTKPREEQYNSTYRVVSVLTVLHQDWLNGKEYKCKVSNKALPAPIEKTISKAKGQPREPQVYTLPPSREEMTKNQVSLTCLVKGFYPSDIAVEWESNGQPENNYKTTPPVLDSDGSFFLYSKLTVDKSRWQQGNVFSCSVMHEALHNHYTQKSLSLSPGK
light: DIVLTQSPDSLAVSLGERATINCRASESVDYYGISSMHWFQQKPGQPPKLLIYRASNLESGIPARFSGSGSRTDFTLTISSLQAEDVAVYYCQQANKDPYTFGGGTKVEIKRTVAAPSVFIFPPSDEQLKSGTASVVCLLNNFYPREAKVQWKVDNALQSGNSQESVTEQDSKDSTYSLSSTLTLSKADYEKHKVYACEVTHQGLSSPVTKSFNRGEC
notes: VHH fused by a (G4S)2 linker to the N-terminus of the heavy chain; IgG1 L234A/L235A; also called IL-36R-1L-23-02
B4: Hu29-19 (humanized anti-IL-23 antibody, hAb29VH5 and hAb29VL3) (antibody, human IgG1, kappa, L234A L235A, V domains shown)
VH: QVTLKESGPVLVKPTETLTLTCTVSGFSLTNYAISWVRQPPGKGLEWLGVIWTGGGTNYNSGIKSRLTISKDNSKSQVVLTMTNMDPVDTARYYCVREGDYGSYAGAMDYWGQGTTVTVSS
VL: DIVLTQSPDSLAVSLGERATINCRASESVDYYGISSMHWFQQKPGQPPKLLIYRASNLESGIPARFSGSGSRTDFTLTISSLQAEDVAVYYCQQANKDPYTFGGGTKVEIKR

Assays:
[1] = target: T1, Human IL-36R protein (His + Avi Tag, biotinylation), Kactus IL1-HM4L2B (human, UniProt Q9HB29 20-335, biotinylated); assay: phage panning on biotinylated human IL-36R, clone ELISA
T1 construct: Screening antigen of the phage panning; also called biotinylated human IL-36R; human IL-36R antigen (screening antigen)
T1 sequence: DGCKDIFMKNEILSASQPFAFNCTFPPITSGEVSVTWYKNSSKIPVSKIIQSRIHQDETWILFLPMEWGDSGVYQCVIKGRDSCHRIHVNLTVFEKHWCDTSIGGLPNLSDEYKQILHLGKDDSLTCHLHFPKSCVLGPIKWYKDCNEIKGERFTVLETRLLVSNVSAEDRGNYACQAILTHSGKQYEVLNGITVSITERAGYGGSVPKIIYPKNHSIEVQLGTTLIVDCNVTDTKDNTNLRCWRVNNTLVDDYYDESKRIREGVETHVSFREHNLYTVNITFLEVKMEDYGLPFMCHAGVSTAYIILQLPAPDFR

[2] = target: T2, human IL-36R full-length protein stably expressed on CHO-K1 cells (human, UniProt Q9HB29 20-575); assay: FACS, CHO-K1 cells overexpressing human IL-36R
T2 construct: FlpIn CHO-K1 line expressing the full-length protein; also called human IL-36R on the surface of CHO-K1 cells; CHO-K1 cells overexpressing human IL-36R
T2 sequence: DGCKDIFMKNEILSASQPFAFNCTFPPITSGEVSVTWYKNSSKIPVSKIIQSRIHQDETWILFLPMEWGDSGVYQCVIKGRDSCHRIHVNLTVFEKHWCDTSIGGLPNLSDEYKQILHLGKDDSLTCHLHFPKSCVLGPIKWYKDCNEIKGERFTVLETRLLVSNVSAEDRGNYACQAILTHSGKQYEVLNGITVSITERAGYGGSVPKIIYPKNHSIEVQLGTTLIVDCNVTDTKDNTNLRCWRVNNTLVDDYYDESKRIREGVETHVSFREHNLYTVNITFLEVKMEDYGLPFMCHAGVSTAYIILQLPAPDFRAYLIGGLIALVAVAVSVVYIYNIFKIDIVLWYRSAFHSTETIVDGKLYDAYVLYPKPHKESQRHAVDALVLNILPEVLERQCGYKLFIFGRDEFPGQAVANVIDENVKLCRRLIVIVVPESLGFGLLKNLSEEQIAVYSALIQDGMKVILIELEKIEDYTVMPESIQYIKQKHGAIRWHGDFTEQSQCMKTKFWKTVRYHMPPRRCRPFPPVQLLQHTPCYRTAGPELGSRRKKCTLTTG

[3] = target: T3, human IL-23 protein (ACROBiosystems, ILB-H52W5) (human, UniProt Q9NPF7 20-189; P29460 23-328); assay: cell-based or functional assay
T3 sequence (looked up) 1: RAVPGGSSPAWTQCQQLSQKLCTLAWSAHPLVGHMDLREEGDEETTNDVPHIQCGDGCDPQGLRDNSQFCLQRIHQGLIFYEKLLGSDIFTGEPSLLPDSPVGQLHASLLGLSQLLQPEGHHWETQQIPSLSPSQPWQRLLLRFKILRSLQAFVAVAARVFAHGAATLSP
T3 sequence (looked up) 2: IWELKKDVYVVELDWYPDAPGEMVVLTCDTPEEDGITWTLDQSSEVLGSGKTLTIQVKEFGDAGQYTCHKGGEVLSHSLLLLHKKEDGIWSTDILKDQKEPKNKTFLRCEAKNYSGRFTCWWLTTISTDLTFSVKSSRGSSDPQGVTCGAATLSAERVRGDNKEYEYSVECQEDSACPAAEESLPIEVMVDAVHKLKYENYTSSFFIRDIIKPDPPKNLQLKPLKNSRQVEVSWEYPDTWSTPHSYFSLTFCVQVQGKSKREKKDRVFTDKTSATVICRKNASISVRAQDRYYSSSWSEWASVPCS

[4] = target: T3, human IL-23 protein (ACROBiosystems, …); assay: SPR (Biacore 8K), antibody captured by anti-human IgG Fc, IL-23 as analyte
[5] = target: T4, Human IL-36R protein (His + Avi Tag), Kactus IL1-HM4L2 (human, UniProt Q9HB29 20-335); assay: SPR (Biacore 8K), antibody captured by anti-human IgG Fc, IL-36R as analyte
T4 construct: Bought protein; also called human IL-36R antigen protein; Human IL-36R antigen
T4 sequence: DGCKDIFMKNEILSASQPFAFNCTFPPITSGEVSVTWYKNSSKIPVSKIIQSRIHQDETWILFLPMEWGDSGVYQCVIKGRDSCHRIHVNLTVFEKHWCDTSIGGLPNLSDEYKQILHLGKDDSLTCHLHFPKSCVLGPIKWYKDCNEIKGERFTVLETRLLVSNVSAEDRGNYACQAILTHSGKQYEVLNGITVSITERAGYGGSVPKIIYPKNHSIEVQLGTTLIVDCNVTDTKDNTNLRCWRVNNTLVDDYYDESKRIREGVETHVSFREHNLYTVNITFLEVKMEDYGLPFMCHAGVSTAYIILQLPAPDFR

[6] = target: T5, IL-36R on human skin squamous cell line A431 (human, UniProt Q9HB29 20-575); assay: cell-based or functional assay
T5 sequence (looked up): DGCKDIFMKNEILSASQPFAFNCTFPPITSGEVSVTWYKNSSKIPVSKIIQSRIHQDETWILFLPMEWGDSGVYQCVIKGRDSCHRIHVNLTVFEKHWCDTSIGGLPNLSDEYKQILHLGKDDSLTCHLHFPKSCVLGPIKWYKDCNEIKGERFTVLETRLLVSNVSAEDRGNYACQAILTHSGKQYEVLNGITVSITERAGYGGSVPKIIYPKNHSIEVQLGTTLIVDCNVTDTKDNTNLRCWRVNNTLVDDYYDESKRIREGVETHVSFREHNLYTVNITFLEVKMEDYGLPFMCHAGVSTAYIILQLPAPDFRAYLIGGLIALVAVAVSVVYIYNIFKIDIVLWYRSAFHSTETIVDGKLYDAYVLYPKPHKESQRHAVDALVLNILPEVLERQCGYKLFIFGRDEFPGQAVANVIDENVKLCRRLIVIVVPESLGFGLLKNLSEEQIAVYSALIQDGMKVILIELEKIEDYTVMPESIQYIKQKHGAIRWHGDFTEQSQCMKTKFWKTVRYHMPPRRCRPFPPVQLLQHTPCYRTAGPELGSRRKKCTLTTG

[7] = target: T3, human IL-23 protein (ACROBiosystems, …); assay: ELISA, human IL-23 coated
[8] = target: T3, human IL-23 protein (ACROBiosystems, …); assay: cell-based or functional assay; remark: listed apart in the source
[9] = target: T3, human IL-23 protein (ACROBiosystems, …); assay: cell-based or functional assay; remark: listed apart in the source
[10] = target: T6, human IL-23 protein (Sino Biological, CT048-H08H) (human, UniProt Q9NPF7 20-189; P29460 23-328); assay: competition ELISA, IL-23R coated, biotinylated IL-23 preincubated with antibody
T6 construct: Detected with Anti-His-HRP in the ELISA, so it carries a His tag
T6 sequence (looked up) 1: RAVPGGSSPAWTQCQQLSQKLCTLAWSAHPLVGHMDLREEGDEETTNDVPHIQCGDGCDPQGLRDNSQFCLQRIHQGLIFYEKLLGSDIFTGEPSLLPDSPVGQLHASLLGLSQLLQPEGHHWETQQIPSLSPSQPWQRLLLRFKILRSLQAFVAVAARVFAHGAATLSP
T6 sequence (looked up) 2: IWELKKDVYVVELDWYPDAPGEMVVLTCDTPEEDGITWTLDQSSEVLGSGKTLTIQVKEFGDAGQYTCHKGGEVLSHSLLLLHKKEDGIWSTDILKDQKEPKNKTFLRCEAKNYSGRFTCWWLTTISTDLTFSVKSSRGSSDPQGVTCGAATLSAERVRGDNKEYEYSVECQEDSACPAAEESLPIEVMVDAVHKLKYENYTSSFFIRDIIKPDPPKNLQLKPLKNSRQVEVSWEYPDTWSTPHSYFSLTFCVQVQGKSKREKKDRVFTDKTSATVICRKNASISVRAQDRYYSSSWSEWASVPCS

[11] = target: T7, IL-23 (R&D Systems, 1290-IL-010) (UniProt Q9NPF7 20-189; P29460 23-328); assay: cell-based or functional assay
T7 sequence (looked up) 1: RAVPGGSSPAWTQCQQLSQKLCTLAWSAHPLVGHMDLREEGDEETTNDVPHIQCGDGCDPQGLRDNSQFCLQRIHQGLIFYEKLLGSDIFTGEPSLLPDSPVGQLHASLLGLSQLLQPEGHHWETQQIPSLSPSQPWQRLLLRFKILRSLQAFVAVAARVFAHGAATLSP
T7 sequence (looked up) 2: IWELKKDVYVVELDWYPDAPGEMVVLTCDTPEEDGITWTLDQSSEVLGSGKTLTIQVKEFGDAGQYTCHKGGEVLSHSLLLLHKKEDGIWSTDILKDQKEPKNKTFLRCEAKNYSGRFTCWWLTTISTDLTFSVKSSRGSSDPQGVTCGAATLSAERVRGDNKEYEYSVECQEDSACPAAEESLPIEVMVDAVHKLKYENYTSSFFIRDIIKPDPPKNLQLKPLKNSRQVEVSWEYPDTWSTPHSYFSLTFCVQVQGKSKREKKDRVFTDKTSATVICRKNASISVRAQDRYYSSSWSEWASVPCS

[12] = target: T6, human IL-23 protein (Sino Biological, …); assay: ELISA, test sample coated, His-tagged IL-23 in solution
[13] = target: T6, human IL-23 protein (Sino Biological, …); assay: SPR (Biacore 8K), antibody captured on Protein A chip, IL-23 as analyte
[14] = target: T6, human IL-23 protein (Sino Biological, …); assay: cell-based or functional assay

| Binder | EC50 [2] [nM] | Maximum MFI [2] [MFI] | DB-STAT3-Luc2 reporter gene system IC50 [3] [nM] | Kd [4] [nM] | koff [4] [s⁻¹] | kon [4] [M⁻¹ s⁻¹] | Kd [5] [nM] | koff [5] [s⁻¹] | kon [5] [M⁻¹ s⁻¹] | IL-8 secretion (A431), IL-36α, IC50 [6] [nM] | IL-8 secretion (A431), IL-36β, IC50 [6] [nM] | IL-8 secretion (A431), IL-36γ, IC50 [6] [nM] | EC50 [7] [nM] | proliferation of BaF3-mIL-23R cells induced by IL-23, IC50 [8] [nM] | proliferation of BaF3-mIL-23R cells induced by IL-23, IC50 [9] [nM] | also measured |
| --- | --- | --- | --- | --- | --- | --- | --- | --- | --- | --- | --- | --- | --- | --- | --- | --- |
| B1 |  |  |  |  |  |  |  |  |  |  |  |  |  |  |  | binding result [1]: binds |
| B2 | 1.28 | 11600 | 7 | 0.023 | 5.97e-05 | 2.6e+06 | 6.47 | 0.000123 | 19100 | 0.54 | 0.2 | 0.06 | 1.21 | 0.39 |  |  |
| B3 | 1.13 | 11400 | 8.8 | 0.0235 | 6.83e-05 | 2.9e+06 | 15.9 | 0.000146 | 9210 | 1.63 | 0.74 | 0.21 | 0.49 |  | 0.5 |  |
| B4 |  |  | 5.1 | 0.0106 | 6.26e-05 | 5.93e+06 |  |  |  |  |  |  | 0.55 | 0.36 | 0.43 | IC50 [10]: 0.478 nM; IC50 for inhibiting IL-17 secretion [11]: 0.0177 nM; EC50 [12]: 1.11 nM; Kd [13]: 0.0151 nM; koff [13]: 4.08e-05 s⁻¹; kon [13]: 2.71e+06 M⁻¹ s⁻¹; Activity in inhibiting proliferation of BaF3-IL-23R cells (IC50, nM) [14]: 0.194 nM |
